{
  "source": "patent US5733890A",
  "about": "“Adenylate analogs as potent anti-herpes virus agents” (National Science Council, priority 1996, dated 1998)",
  "proteins": {"B1": {"name": "calf mucosal adenosine deaminase (EC 3.5.4.4) (Bos taurus) (protein)", "chain": "MAQTPAFNKPKVELHVHLDGAIKPETILYYGRKRGIALPADTPEELQNIIGMDKPLSLPEFLAKFDYYMPAIAGCREAVKRIAYEFVEMKAKDGVVYVEVRYSPHLLANSKVEPIPWNQAEGDLTPDEVVSLVNQGLQEGERDFGVKVRSILCCMRHQPSWSSEVVELCKKYREQTVVAIDLAGDETIEGSSLFPGHVKAYAEAVKSGVHRTVHAGEVGSANVVKEAVDTLKTERLGHGYHTLEDATLYNRLRQENMHFEVCPWSSYLTGAWKPDTEHPVVRFKNDQVNYSLNTDDPLIFKSTLDTDYQMTKNEMGFTEEEFKRLNINAAKSSFLPEDEKKELLDLLYKAYGMPSPASAEQCL", "notes": "calf mucosal adenosine deaminase; from tissue; host or cells: calf mucosa"}},
  "assay_in_all_cases": "Deamination kinetics of compounds as substrates of adenosine deaminase",
  "type_in_all_cases": "biochemical, calf",
  "conditions_in_all_cases": "other: adenosine deaminase substrate; buffer solutions",
  "key": {"[1]": {"substrate": "Nc1ncnc2c1ncn2COCCO", "source_text": "(§1) By following an established procedure [Ogilvie, K. K.; Nguyen-Ba, N.; Gillen, M. F.; Radatus, B. K.; Cheriyan, U. O.; Hanna, H. R.; Smith, K. O.; Galloway, K. S. Synthesis of A Purine Acyclonucleoside Series Having Pronounced Antiviral Activity. The Glyceropurines. Can. J. Chem. 1984, 62, 241-252.], we determined the rates of deamination of VI, 13, 37, 40, and 42 in the presence of calf mucosal adenosine deaminase (EC 3.5.4.4) in buffer solutions."}, "[2]": {"substrate": "Nc1ncnc2c1ncn2[C@@H]1O[C@H](CO)[C@@H](O)[C@@H]1O", "source_text": "as §1"}, "[3]": {"substrate": "Nc1ncnc2c1ncn2COCCP(=O)(O)O", "source_text": "as §1"}, "[4]": {"substrate": "Nc1ncnc2c1ncn2COCCP(=O)(O)O[C@H]1[C@H](O)[C@H](n2cnc3c(N)ncnc32)O[C@@H]1CO", "source_text": "as §1"}},
  "data": [
    {"protein": "B1", "values": [
      {"measurement": "Km", "setting": "[1]", "value": 138.0, "unit": "µM"},
      {"measurement": "Km", "setting": "[2]", "value": 45.3, "unit": "µM"},
      {"measurement": "Km", "setting": "[3]", "value": 247.5, "unit": "µM"},
      {"measurement": "Km", "setting": "[4]", "value": 166.2, "unit": "µM"}
    ]}
  ]
}
